Read-outs that look alike come from different tables or passages of the source. Blank lines part the entries; values can stand above or below the molecule they belong to.
B1: human Hsc20 (natural protein, UniProt Q8IWL3 72-235, looked up)
chain: DYFSLMDCNRSFRVDTAKLQHRYQQLQRLVHPDFFSQRSQTEKDFSEKHSTLVNDAYKTLLAPLSRGLYLLKLHGIEIPERTDYEMDRQFLIEIMEINEKLAEAESEAAMKEIESIVKAKQKEFTDNVSSAFEQDDFEEAKEILTKMRYFSNIEEKIKLKKIPL
B2: full-length human Nfu (natural protein, UniProt Q9UMS0 10-254, looked up)
chain: GAAAVAAGLRRRFCHMLKNPYTIKKQPLHQFVQRPLFPLPAAFYHPVRYMFIQTQDTPNPNSLKFIPGKPVLETRTMDFPTPAAAFRSPLARQLFRIEGVKSVFFGPDFITVTKENEELDWNLLKPDIYATIMDFFASGLPLVTEETPSGEAGSEEDDEVVAMIKELLDTRIRPTVQEDGGDVIYKGFEDGIVQLKLQGSCTSCPSSIITLKNGIQNMLQFYIPEVEGVEQVMDDESDEKEANSP

Tests used:
[1] = target: human HSPA9 (human) (UniProt P38646); assay: ITC
human HSPA9 (human), sequence (P38646 47-679): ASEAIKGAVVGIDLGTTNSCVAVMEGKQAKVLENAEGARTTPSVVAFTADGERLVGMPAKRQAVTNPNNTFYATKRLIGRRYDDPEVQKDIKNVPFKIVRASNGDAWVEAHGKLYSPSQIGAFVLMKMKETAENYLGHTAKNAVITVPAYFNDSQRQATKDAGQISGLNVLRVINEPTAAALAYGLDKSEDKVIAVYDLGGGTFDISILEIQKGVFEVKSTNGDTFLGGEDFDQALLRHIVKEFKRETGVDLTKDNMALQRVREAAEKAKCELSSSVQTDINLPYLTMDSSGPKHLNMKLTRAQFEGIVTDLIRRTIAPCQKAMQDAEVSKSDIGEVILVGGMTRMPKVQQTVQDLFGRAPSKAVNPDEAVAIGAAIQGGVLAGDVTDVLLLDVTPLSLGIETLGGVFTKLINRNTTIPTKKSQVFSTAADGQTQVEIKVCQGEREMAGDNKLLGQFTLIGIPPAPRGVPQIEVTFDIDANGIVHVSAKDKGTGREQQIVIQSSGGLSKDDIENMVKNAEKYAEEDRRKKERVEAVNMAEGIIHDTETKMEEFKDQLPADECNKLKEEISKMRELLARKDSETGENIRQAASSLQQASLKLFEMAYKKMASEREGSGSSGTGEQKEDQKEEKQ

[2] = target: human HSPA9 (human) (UniProt P38646)
[3] = target: human HSPA9 (human) (UniProt P38646); assay: ITC; remark: listed apart in the source
[4] = target: human Hsc20 (human) (UniProt Q8IWL3); assay: ITC
[5] = target: human HSPA9 (human) (UniProt P38646); assay: ITC; remark: listed apart in the source
[6] = target: human Hsc20 (human) (UniProt Q8IWL3); assay: ITC; remark: listed apart in the source
[7] = target: human HSPA9 (human) (UniProt P38646); assay: ITC; remark: listed apart in the source
[8] = target: IscU (Escherichia coli) (UniProt P0ACD4); assay: SPR; conditions: cited from earlier work
IscU (Escherichia coli), sequence (P0ACD4 whole entry): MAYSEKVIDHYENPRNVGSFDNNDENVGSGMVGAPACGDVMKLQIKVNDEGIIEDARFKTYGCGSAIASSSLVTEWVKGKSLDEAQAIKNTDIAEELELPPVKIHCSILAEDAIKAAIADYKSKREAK

[9] = target: B2; assay: ITC
[10] = target: T1, human HSPA9 (human, UniProt P38646 47-679); assay: ITC
T1 sequence (P38646 47-679): as the sequence (P38646 47-679) above

[11] = target: T2, human HSPA9/Hsc20 complex (human, UniProt P38646 47-679; Q8IWL3 72-235); assay: ITC
T2 sequence (P38646 47-679, one chain of several): as the sequence (P38646 47-679) above

[12] = target: T1, human HSPA9; assay: cell-based or functional assay
[13] = target: T2, human HSPA9/Hsc20 complex; assay: ITC; remark: listed apart in the source
[14] = target: T1, human HSPA9; assay: ITC; remark: listed apart in the source
[15] = target: B1; assay: ITC

Kd [1]: 30.3 µM
dH [1]: -2 kcal/mol
stoichiometry N [1]: 0.907
Vmax (maximum ratio of stimulation) of HSPA9 ATPase activity by C-Nfu, 0~150 µM [2]: 2.44 fold
Kd [3]: 18 µM
dH [3]: -7.3 kcal/mol
Kd [4]: 10 µM
dH [4]: -0.57 kcal/mol
stoichiometry N [4]: 0.79
Kd [5]: 51 µM
dH [5]: -3.2 kcal/mol
Kd [6]: 11 µM
dH [6]: -1.7 kcal/mol
stoichiometry N [6]: 0.94
Kd [7]: 14.9 µM
dH [7]: -3.82 kcal/mol
stoichiometry N [7]: 0.88
Molecule: C-terminal domain of human Nfu (from UniProt Q9UMS0 10-254) (domain or fragment)

Molecule: HscA (from UniProt P0A6Z1)
Kd [8]: 39 µM

Molecule: B1
Kd [9]: 10 ± 1 µM

Molecule: B2
Kd [10]: 36 ± 4 µM
dH [10]: -4.9 ± 0.1 kcal/mol
stoichiometry N [10]: 0.9 ± 0.2
Kd [11]: 9.43 ± 0.07 µM
dH [11]: -1.7 ± 0.1 kcal/mol
stoichiometry N [11]: 0.985 ± 0.04
Vmax (maximum ratio of stimulation) of HSPA9 ATPase activity by Nfu, 0~150 µM [12]: 3.78 fold
Kd [13]: 300 ± 100 nM
dH [13]: -3.4 ± 0.1 kcal/mol
stoichiometry N [13]: 0.95 ± 0.02
Kd [14]: 8.3 ± 1.4 µM
dH [14]: -6.3 ± 0.7 kcal/mol
stoichiometry N [14]: 0.9 ± 0.1
stoichiometry N [15]: 0.93 ± 0.06

Reference: article PMC5777896 (The FEBS journal, 2017)
